This data set is described as follows: soluble fraction after stress (log2 fold change); higher = more stays soluble; pooled small domains, quantitative proteomics. As to conditions: stress: pH 4. The essentials: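 With high-throughput quantitative proteomics, pooled custom libraries of small protein domains were measured after pH 4 stress. Each domain's soluble amount after the stress gives a fold change taken as aggregation propensity. Higher log2 values mean more of the domain stayed soluble.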

For “HMAKIEVENLEETILENLKANNGFMPYNDKTSPEEIYEVFHVSKKHFKNSLGGLMKKGLIFQNEKGTKL”, the “soluble fraction (log2)” value is -0.444. Under “HMAKITERVMGSAALRDYDPNYLPDEVLKALDGYPPFDGYVYKDGILYARVKIGDTFFIIPPI” stands -1.84; under “HMAKKDVESTLGGRLRVARVRAGLTQVELARMLGMNSVSLSNVEGGRRGLSMKQLVRVAKILEVPVAYLLG”, 0.151. Under “HMAKMPSIIIMKDGVIRTSELEQIERDENWLNEEMKKQHIDNPEDVFLAEFWDGKVNFILQDGKIK” stands -0.78; under “HMAKNDSGLNNHTFNTIRDALQKALTDGPQEAKKLTENLPFPADKIITVIRYLADHDEHFSLEDGIISLT”, -0.0785.

With “HMAKNIEVPNLVGSTISVARNDLKQLGLHVIVRDSVWSEDKKIDTILEQFPEPGKKLKPEGVVQVVVSI”, the “soluble fraction (log2)” value stood at 0.0706. In the case of “HMAKNSVLTIELWNSTAFKWRKDTEPYSESMSVDFNRSVRLTDGISIMFSKFGFVPGIQYLIPLQT”, the “soluble fraction (log2)” value is -0.331. For “HMAKQQTTTTAHVVTTGETLYSIAQKNGISVEELKKSNNITSDKLRPGQTLHITKVSKTSSTAK” the value was 0.129; for “HMAKRPRFEDVIKEINTEIQKRKGKWNLTILSWMDFDDVAQVIRIHIYRKWHLYDPSKPLGPWLNR”, 0.322; for “HMAKSETAKIKATPYGWLRVRDTPSLNGAEIARVNSGDEYKVLEKETGWIKIKVSDTVEGWVSDAYIELS”, 0.16. Under “HMAKSKYETHVLPNLDKIIKWAKAGATAKEIAANLHIAYSTFRKYLDEGQEGDERYAALSAAFAQA” stands 0.22. “HMALDLNEDEKLLVELIEKAGGTAGLGELKEASGLSGKKWDKTTKNLSKEGLIKVEKNESGLWVHLT”: the “soluble fraction (log2)” value was -0.423.

For “HMALDLPVKRVKGKEYYYYKVKKGESLYGISKHLGLPLDSIVKSNPSVADGVRKGDMLLFPLEEYT”, the “soluble fraction (log2)” value was found to be 0.115. With “HMALKQADFDFIRQMIQQRAAIVLDDNKHYFVESRLGPVVEETGSKSLDQLIDQLRSSSNSLLQQKVTEAI”, the “soluble fraction (log2)” value was -0.324.

On to “HMALLSDEERIATVFAARLGGYSHQEIYKLLQDRFGPSLPAAYSEKSVLTDLQTALSQVPSL”, for which the “soluble fraction (log2)” value was -1.41. For “HMALPEHIEPFLRGLGQALAEGDSYEDVQERLLRAYPYLDSTEFQTALARVIFISDLWGRLN” the value was -1.02; for “HMALPPPELRGATGEAVTALRPAGIALIQGKRYDVLAEGGEWIAAGAAVRVRDIRNGHLIVSDA”, 0.166. As for “HMALRFMAYGRINGTNVHFRTGASASTASLGRYSRGTEFGVYDKIGGWYRVRLLSTGQEGYVYSRYLTLTG”, the “soluble fraction (log2)” value is -0.0807. Under “HMALSGTVQNFAGGIMILIFRPFKTGDYIEALGYFGKVSEVNIVSTKLRTFDNKTIILPNGALSNGNIQNY” stands -0.775; under “HMALSSQQIKDMQSWYGTKADGIWGSKSTTAAGGRDAGAAYSLYSSNKGRYSSYTDYMSYGGG”, -0.000306. For “HMALSTRERMSFVLEVLKEKEFIPFVDLFSPEEGRAGVVVTFLALMELMKDSLIEIVQTKNFGEIHVRARL” the value was -1.07; for “HMALTQEQLGQRLQDARKSVALTQQEVAEDLGLSRESLAQIEAGSRSVNSLEIVRLARLYGRSLSSILLE”, -0.299. In the case of “HMALYSEQVSEIEKALMSLPPKYQLVMLLLYAEDLKYEQIAEILDEPIGTVKTKIHRARKILKERF”, the “soluble fraction (log2)” value is -0.0112.

In the case of “HMAMDSGELEAIVDRLISEHPDDWAALTAGDDRERKKKSGFFVGEVMKATRGQADGRAVIELLASRSA”, the “soluble fraction (log2)” value was -0.605.

Regarding “HMAMDYTVVHSDRRTIAIQIQRDGRVVVRAPYAATAEDIRRVVDSHRDWVEKTVRRQQEQLAAS”, the “soluble fraction (log2)” value turned out to be 0.238. For “HMAMNITQRHQEILAVIKQEKHITVSEISKLLGVSEVTIRKDFNYLEEKNLIYRHHGGASLNN”, the “soluble fraction (log2)” value was -0.0786.

For the sequence “HMAMPQPVARALHRLGQDISAARRMRRLSQEDLAQRIGTSLSTVRRMEDGYPGTALHTFLRALHML”, the “soluble fraction (log2)” value was -0.4. Under “HMAMSDFDALSNRISTLSQGRASAVRMKDGIVSLVLDIGGLSAEERKAMTAAIEGEGRGYPSVTQVRILET” stands 0.0485. For “HMANAGKFDSDMGEKINFPGNRVSLTPSELEAARELAAIMGDRFFSQLIPTTSKVTVTEMLQSLK” the value was -0.849; for “HMANGTVKWFNTTKGFGFIAPETGGKDVFVHISAVERSGLTGLADDQKVTFDVEAGRDGRESAVNLAL”, -0.613; for “HMANKTVPNVSGKTVAEARAIIENQSLQVGEEKEEYSDSVAEGYIIRTNPTAGSQKKEQSKIDLVVSKG”, -0.211. For “HMANLDSLIKKVGQYAKDKQSISVDGIKKDLSIDKDMVKEALAELLKIGVVDKPDEAGQYKVIM” the value was 0.0802; for “HMANPMFAEIKKVQKQLNEMGYQAGPADGLWGNKTENAVKLLLSDNNLKWDGTFDQNEIKIIEEIFLSND”, -0.257. As to “HMANPRLEYFLSNITPDWNEFSPELKNQLLIENADPYKLEQYILQVSPDMYIEEQNAPGTVRQMAGDITG”, the “soluble fraction (log2)” value was -1.54. Under “HMANSANARKSLVSKLIAGGKIASQSDLVKALKKQGIVVTQGTASRDLEDIGAIRVRNSEGEIVYALT” stands 0.108; under “HMANSDEEVLNKISTKAPTFNELINKIKEFDDTKEINDIWLDVYRYYITDEEYKEIAKKVITGLTYTNQ”, -0.544.

As for “HMANSLLVTAQAGGQKLFNFLKRSLHAENNEIHRWIRTGQVRINKKRTKAFDIVHENDEIRIPPFALNR”, the “soluble fraction (log2)” value was -0.053. Turning to “HMANSREIPKLAGIEQEEAVKQLLDLDLKPVIEEITDDDTDAGDVVRTDPAAGEHVAVDTEITVFISIG”, the “soluble fraction (log2)” value is -0.192. On to “HMANVQLAKNLKTLRKKYNYTQQDVSTFLNITRQAYSHYEQALREPDLNTLVHLSRFYQVTLDELI”, for which the “soluble fraction (log2)” value was -1.6. Take “HMANYHDIAADLRSKINHGFYEEEKKLPKQSELAADYQTSRVTIQKALNILQMEGIIYGKKGTGTFIRDSY”: the “soluble fraction (log2)” value was found to be 0.0346. Under “HMANYTVNAYNNGGTGGSVNMRSGPSTNDGIVVRVPHGATVTGTKSGTWSYMTYNTYTGYMMSVYLDEQS” stands -0.0556.

Turning to “HMAPAPYLVKVTANKLNIRSGPGTNYKIQGAITDKGTYTIVDTQGRWGKLKSGAGWIYLNYTKK”, the “soluble fraction (log2)” value worked out at 0.22. For “HMAPASADQLIDQLNEKVKAKDDKGVAALLTAAQTKMAELAQKDPKEAQAYVAKLQQWMQSNSENIKAALK”, the “soluble fraction (log2)” value worked out at 0.204.

Take “HMAPAYELTEEETKIIEILKANENIDLNELKSQAALSGKKWDKSMKNLAKYNLTKVTVDGDAKTVAYLA”: the “soluble fraction (log2)” value is -0.516. Under “HMAPELSGEKLWDAQDVAMFLRVKPTTVWSYVSRDGFPAPVSQAGRAGMWSEPLVVQWYLSRPG” stands -0.16. Under “HMAPEPFILSVDADGKYYIDDLEKTKQEILIYATALYQEKPTTDFLVRGDKSAAYNDVLQAMVVLKE” stands 0.171; under “HMAPETALQILEQIQINPKVTMTDLANLTGYSRRWVAQTMKQLQELNVIKRVGSTKTGYWEIIA”, -0.142; under “HMAPGSKAEIPEDLMKVINKDPKMKAFVATLNKANIMAISFRLSTAKKPETRERRFNLILETLKRGEKF”, -0.644. As to “HMAPKVTLNETETAIFEKMQQEKQLLLSELRTHFDISNKLWDTSIKTLTKNQLLTVSKEADLLWIKL”, the “soluble fraction (log2)” value was -0.935. On to “HMAPLAVIFPEPWRGMIAPEKLEGLTQALSLNPRPGYQHDPTRRYGVSLDGLDVRFTIDGDTLTVVEVVT”, for which the “soluble fraction (log2)” value was -1.12. For “HMAPNKLQQQEVWTKALPLLQQMIMTIRQIDAAGGDSSPERELLEETAARFDETLDVERFLP”, the “soluble fraction (log2)” value was -0.774. For “HMAPPPLAGAREALREQIRRGSLSARRGFDAYADALGLPAGTRGAHPIFAALQRLDYPQALRLLDQEPT” the value was -0.108; for “HMAPQVKIPNLVDVSQRQAEAILNSYGLKVGHLIYKPDLAKDAVLGFMFNGRSLKAGDELAKGSSIDLILG”, 0.192. As for “HMAPRDKADKYVAAGIAEELVPILQKVGYYLVTDLKDVKAQKIQQQIGEIIKKYKLDIEKPSVQDIEGWN”, the “soluble fraction (log2)” value was -0.259. Take “HMAQDIEQLEKAVSFYTRMDPAAAALSITNLDQKTAVNILMRMKDKQASAVLESMTAERSSELIDSIARK”: the “soluble fraction (log2)” value is -0.863.

Consider “HMAQELPYEKVTMNGKMFYVYHVKAGEGLYLISRTFSVNADEILKFNPSIENGLKSGQVLYIPIK”, for which the “soluble fraction (log2)” value was -0.403.

“HMAQISDESALYDLVKSVLDANPQSIADYKAGRDRALGFLMGQAMKLSKGKANPPVINKILKEMLDK”: the “soluble fraction (log2)” value amounted to 0.292. For “HMAQKQLYIAGTDYTKNSTSQLVLAYFPAKPSSIKIFFDGIYQNKDKWSLFGKTIIFGLPISSNAVEVHYE” the value was -0.201.

As to “HMAQLPADLSKVKSSQISDQQLTQIAQQAKNSGQSEQAVLQELKQRGLPDTEIQALGARISGLMQ”, the “soluble fraction (log2)” value stood at 0.404. Consider “HMAQLVVTVDKLNKRTAIPVTLSDKSSNDSVVEKGFRFEGFPFVNTATNGKKWYKDREGFFYWAGGLMEEA”, for which the “soluble fraction (log2)” value was -0.0297.

Turning to “HMAQMDDPEMVLHIYNKMIQQRLFDTAVGYSYLKDLQEYLQSIPFIRKEDIFPIPVQHPQVEESLRKAK”, the “soluble fraction (log2)” value was found to be 0.0635.

On to “HMAQTSAELIIEYLKRNDGFMELTDKSPADEIYETFGISKKNFKMAVGSLYKNRVIEIGQNGIRLVE”, for which the “soluble fraction (log2)” value was -0.0445. As to “HMAQTTKWREIHKVKRKETIFGIARDNGLTVDELIEANPEMTKPGYELKKGDFIYIPFPSKNIDTNAGTQT”, the “soluble fraction (log2)” value is -0.627. For “HMARAESYGDIARLEQLLDEHANIAALDPGKLPAVRQQIWTLMRAARMDHDLGLAERPEDDSFDDMLLHV” the value was -0.0475; for “HMARAPIYPDGLTQREVEVLSLVAAGKTDREIAEELFIALRTVTTHVGNILNKIGAANRTEAAGYATRQGL”, -1.4; for “HMARAVSPLEAIPGVGPRRRQQLLKQLGGMQEVARAGVEDLSRVPGISRALAQQIYDAFHGD”, 0.0348.

“HMARDPWDVLGVAKTATNDEIKRAFKRQAMMTHPDKQGGSEERFKEVNEAYSHIKDEQSRAKYQNSQ”: the “soluble fraction (log2)” value stood at 0.0164. As to “HMARDSYNGVQRTISTLLGQGNYDRAYDVAVGARGQMSKQQWSDVAKRIYEVSGIKIDDSVKY”, the “soluble fraction (log2)” value is -0.0224. Under “HMARRSRADAVRNREALIDAAKAAFTEAGPDVSLEEIARRAGVGIGTLYRHFPTRDAVIEAVYR” stands -0.206.

For the origin of these results see the domain aggregation screens of Martell et al. (2025).
